According to the domain aggregation screens of Martell et al. (2025):

Test: soluble fraction after stress (log2 fold change); higher = more stays soluble; pooled small domains, quantitative proteomics
Conditions: stress: 75 degC
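Also: 20 min heating vs room temperature control held 20 min.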

| Sequence | soluble fraction (log2) |
| --- | --- |
| HMSRQAPIGHRIRGRRKDIGMTQNALAKAAGISPSYLNLIEHNRRSIGGGLLMRIAAILDIHPHTL | -2.87 |
| HMSRTLLVYVTGAVRQPGVYELPEGSRFFDAVKAAGDVLPYAVMEDINMAEPLSDGMKIHIPLDPEQ | -0.687 |
| HMSRVFSPSELEIRHAQDVFQALEEAKRQGKGAVSLNGKMIDAPIVARAKLVLEAAAAIYGED | -0.379 |
| HMSRVHHGFNISIARNRKGLKQAALADMLGISQQRLSQLENQRVVKDEILEKVSEATGVSVEDLKTIE | -0.08 |
| HMSRVSVDGEEVNFEGEIPDDPSRIYELLMGALSEQSRVVVKFFVDGKDALLDEGFPSRYQMIEAESV | -0.0462 |
| HMSRYAFEGNVVRLNQKDFDSWKALFTNIDLVSELTRLDIEFTHDKPKNWFSTASAKLNYQNKNAY | -2.51 |
| HMSRYLLPYAFARTQQVLLEEKSGELTLWMHSGSNLGGISEVTRKYAVQHVTHEPMDALLNRISSAYAN | -3.34 |
| HMSSAVKRALAELPENWRMIVYYRVVEGLSYAEIAKVLDIPDGSVMSGLHRGKKMLRGLLLEYAQQEGYD | -1.79 |
| HMSSDDEAFKRELVGLIPHLRAFARTLTGDPTAADDLAQDAMMKAWDARASYQMGTNMKAWTFMILRNQFY | -2.53 |
| HMSSDKVWSFEASGKQLQASYVAFENETVYLRASEDGSLLQFPLTDFGMKDQLVVLELYELSAKINRSN | -0.934 |
| HMSSDLSNVVKIIDTLKHKKGALLPILHQIQREIGYIPLKTIDTIAKKLQQTPAEIHGVISFYHQFRTS | 0.0116 |
| HMSSEASALRGWLQTSQYQGSVTLFANALNVPLKTVEDWVYGRSKPSLQHWSQLYEATGLPEYQQ | -0.387 |
| HMSSFRDISGTVYVKASAANLRSEPNTSSLIVDTLYYGASLQRISTNDIWTKVKTGNGQIGFMDNSLFQT | -3.12 |
| HMSSGSLLTEREIEILAEMAKGLTNKAIGEKLFISVATVKTHILNIYRKLEVSSRVTAVNKAKQMRL | -2.43 |
| HMSSGTAYATDAVNVRSGPGTSYTVLGYLSRGEKVTITGTVSNGWTQIQLPGNRLGYVSSAYLSASYPS | -0.85 |
| HMSSHNIALDQDVVVTQLKGKVYLVAADGSQKQLAEGDILPKDAVLITPEGASFKGGNQTFTLS | 0.103 |
| HMSSIFTRIIAGEIPSYKVAEDENYYAFLDINPLTKGHTLVVPKMEVDYIFDLDDKTLAGMMLFAKKG | -0.129 |
| HMSSKIKYSEFITMLDKGEVESVVLKSDTLTITLKHGTGVAAQTKTTTLMEDLSELTKRLEKAGIKDFDK | -1.38 |
| HMSSLDTLTARETQILAEMAQGKNNAAIAAAVSVSERAVEKHTNSIFAKLGLSEEKDVNRRVMAVLLFLGR | -3.6 |
| HMSSLEQVYPNPVSSILKLNSFIKNYKILNATGHEVLKGSGNTINVGKLPSGSYFLITSENYSIKFIK | -1.08 |
| HMSSLSGVRRTLLDSLGMPPDASDEELADRREELRGSLDTAPQARRKWIEQQLARIDAITALDASG | 0.106 |
| HMSSPEAAEVQRLLKDGQHVQALKIIDESLARNPKDPQMRFRRGVALSMLDRKNEALAVFQKLVED | -0.182 |
| HMSSPRAIYSAIQKAVGEDMILYREDVQIILDKLDADLLVDDILEKMELDGTLVRQRDGTWLLL | -0.801 |
| HMSSQVFLGQKNSIAKYDLNENKPIWTKEIKGTPLILSTWKDMLLIQIQTWVSYTHMLVKQENGQTVWE | 0.288 |
| HMSSRLEIEITSKIDDLSHTWRAVGAKQPKGNIKSSLLPSGVKVGETFRVEADFLLDGIEIVSVLPP | -1.86 |
| HMSSSLDQLTVREREILAQVSRGLSNKAIARELGISHDTVKLHVRHILSKLGFSSRVEAAVFAIEHRIG | -2.35 |

| Sequence | soluble fraction (log2) |
| --- | --- |
| HMSSSMDAIAEIIRSIPRGDHLTAPEVYELAKQRGLKLSLSTVYRTLNKLKVVGDVITVSGDRGLRYESV | -0.336 |
| HMSSTPEPPQAVLDLVNLREQARAGKDWTQSDAFRQQIAALGWTVKDTKDGPVVSLSPTTTE | 0.392 |
| HMSSTSTMTVAEATIGRKVKHDKFGEGTIITVADVNGDKKLTIAFNQQGVKMLMLSMAKLEL | -3.36 |
| HMSSVEVWINGKSSGLTSDNRAQILQQLPAESIERIEVIDNPSAKFSAEGSAGIINIVLKKD | 0.195 |
| HMSSVRDNGDLELVPGDRIRHDDYGEGRVTAVTGVGSKRIAHAVFDSVGERKLLIKLSPIEKI | -0.0574 |
| HMSSWMTKDGKIKPISKWAGVPMTSQQQADYAAGKVVELTNIPDKQGQLNTVYLKFNPEKQRPTTSLNDPR | -0.00849 |
| HMSSYETVTLNGQRYFKYKVKSGEGLYAISRMFSTPIAEIIRHNPSSNAGLKNGQELLIPVN | -0.356 |
| HMSSYMQMQLERLESLLQKNDLTDSDKYDIRQLVEDLDKVPESVSPNLVGAYMTIKNRYASVLKTVL | 0.0189 |
| HMSTANISIEQAKEIALNHANLTSNQVIFSRTELDYDNGIQKYEVEFYYNNREYSYEINANTGDILGYEQ | -0.722 |
| HMSTANIVVPDVKGKTFEEAKKAIEAEGLTAKAEGDESGVVQKTSPSYGVSVESGSEVTLTLVKSDD | 0.494 |
| HMSTDNINYKNILIASLLIHAAKIDENYTENEKNIIKKALIELDEIDSKKADEIMILAEKKE | -0.265 |
| HMSTGYEMVREVANQGSFSKAANSLGVSGPAVSKQVKSLEERLGLVLFHRTTRAVSLTQAGRQLVDVLN | 0.114 |
| HMSTIKEKIIQYLDFKGISKYDFYQKTGVSNGVLSQKSGMSEDNIMRFLSYYDDINTDWLFYGKGEMIKT | -2.06 |
| HMSTKLLEVNIFDDSKWVNKTIMDSDIPEDILIVMIKRGDEVIVPKGSTIINKGDILVLSANNFDNLLN | -2.45 |
| HMSTMTEQEAFGLWERINDFIARTGNEPNRNSNDAHEVRMAEALNFIRIKVAEQRNSQSNSEAQNN | -0.263 |
| HMSTNDIFISGDKLVLKNTTGQMDVFDMAGRKVLSSTNNVSEMNVSSLPKGVYVVSASIGGSKMKAKVYK | 0.536 |
| HMSTQGRRIEILRHLTQTKKKADVNFVELGRTFGTSDTTIRKDLDWLIKNEYWENHGEWKPTQAGLNMI | 0.0518 |
| HMSTRKAFVNGDGVRLRSGPGTNHSIRASLTKGQTVFVTGTKDGWASVSVQGGASGWVSADLLKYE | 0.59 |
| HMSTRYVRTPAGQAEIQARVFKLSRPVRNLLLVINDSRSIDDWLVQVHGITADDVAMLRAEGLIAEVS | -3.06 |
| HMSTSEQVYTTDKVNVRREADTSSEKLGSLEKGTAISRTGTEGEWSVVNYGGVTGYIKTEFLTTEQPQ | 0.63 |
| HMSTSFQVQVSVLDLRIRKEPTVKGQEVGKISKGIHTITETRSADGYTWGKLESGQGWIALEFTTKLD | -3.72 |
| HMSTSLIEFTIDRNNSIANKMIMDANIPEDILVVMIKRNGDVFVPNGSTKILPGDILVLSGNKLKY | -1.69 |
| HMSTTDGIERFLASGAVKGIGRTMAARIVEHFGSRTLTVMESEPERLTEVAGIGRKKAESIAASYAELS | -0.247 |
| HMSTTYAPYLLGETEQEAIRMARNAGLDPQVVRQSDKSEAGTVILQSHDFGFAMKRGAVILITVSSGPLQ | -2.13 |
| HMSTVTEVHYIAFKNGRIVDIKAALTGSAVTATSIKEQPKIENYNYTTSEVRDGILYHTYAPVA | -2.37 |
| HMSVADNALSRQAIESRIALFIQNEDPNHPRSDADIQKELAQAGVVISRRAITKYRNHLHIPSASLRRR | -1.16 |

| Sequence | soluble fraction (log2) |
| --- | --- |
| HMSVAPISYSQFESYLEQGKVASVAVGQDTIAGRFTAPVDGKSQFVTTIVNPQILDRIDKSGVEITGV | 0.144 |
| HMSVAVKAPLQGTVMKVNVKPGDTVTKGAPVAVIEALKMENDVPAPQDGVVASVDVKSGDSVKTDQVLLTL | 0.563 |
| HMSVDAMDEANERKMAKTFNMIVLGGLLKIRPIVSIESVIKALRKTLPERHHHLIPMNEEAIHIGMDII | 0.0832 |
| HMSVDDEQLLKIIDDIFQQNPQAVTDAKTDSNAIHFLIGQVMKETKGHADHAISKEIIEKKLS | 0.0407 |
| HMSVDEVEALYLKIAEDRLEGKLPDKVSESDLMRRYGLTKAQLGAILQRIVHEGWIERTPGHGWRFLPIL | -0.538 |
| HMSVFMIIVLKQHAPQEFVDMLMSSIKAKGVQIDVSKGARKTILGLVGNTSVIDREQIAGYEYVDKVIRV | -1.94 |
| HMSVFTDIYHQADHETKLMLIHEIKIVGDEKEFRLLKSIIDSTSNDLSKEANDALNAIKIRLALSK | -2.34 |
| HMSVFTPLTRSELETFLAPYELGRLLDFQGIAAGSENTNYFISLEKGEYVLTLVERGPVAEMPFFIELLD | -1.33 |
| HMSVGDLLENLIRETRAQFSAPPESLGVAEKRRFVALLSQKGGFLLKGAVSRAASVLGVSEQTVYRYLKDS | -1.83 |
| HMSVGDLPPEAREIWKLLDGRELSLDLLAEETGRETGALLSTLMMLEMKLLVEHGSDMVYRRIPRR | -2.85 |
| HMSVHSAELKKLKAHLLGIIGRELETQPSTENREEMVRQILHQSYESLRLNLPMQLKEELFNEILAEVL | -0.459 |
| HMSVLEHVSGNVRRLRLQAGLSQEALARAASVSRRMLVGIESGDVNVSLSTLDRIAAALGVLFPDLVQAP | -2.53 |
| HMSVLPAREQVAAILRQAILLRKFKEGQDLTLKDAAELVGSSITPVREAFQILENEGLIELRPNKGAVVL | -0.627 |
| HMSVPEDLYFRELEVEGNKVRISGIASTNNRVSALMRNFDQSEWFRDPSLIKVESKSPGVNEFEIVMTRI | 0.125 |
| HMSVPNVVGRDQVEASSLLESAGFKVSVKQSYSDSVEQGKVISQSPSGSTTVSPGSTVTITVSQ | 0.395 |
| HMSVPRPSAVEVTSLVTGVRDLLPHLGEGYVERVLVEFGFKVDETINALLEGNLPKHLQDLDPSLTKEI | -1.24 |
| HMSVPVDEVLAALTQKLTDLRTQAMAAKDFSAVDALKAALTEAGVEVRMSKTGVELIAGPRVDAKKLGTL | 0.395 |
| HMSVRPMVEILRVVGSPSPVWVTWARNRAAWLYETGIRPQQRLRMADGTEVLIRLVGEFAHILVVGG | 0.092 |
| HMSVSATQMDAFVRQLRARLSSADGLDDAARLVRQDLEPFLGRFSDETERDFAAAIEQVRGSIRPVEI | -0.139 |
| HMSVSEAELAEKYHADDLEALKSGKLHEFQENLIDRNGKKYTVQTMKDILTLSDGTRLLLGIGLD | 0.131 |
| HMSVTDDQLRVFTNKSGTKIKAKIVEVSDDKVKLIRDDNKKFIVPINSLSEEDQDYLRDWVSNEAVEP | -0.118 |
| HMSVTIDAGGKVYLQESEIADDQLVPRLVAISNNGYDKPIYLRADKTVGYGRVAEVMSLLNAAGFTKLVLV | -0.513 |
| HMSVTRELMLVKVKVTPEQRAGVSAIVDIFRANIIDVGKESMIIELTGNKSKLEAFIDLLDGYEILELART | -1.46 |
| HMSVTVPDVKRMQAEDAKALLSRYRLRSEVIDSVYVDNIPRGAVVEQIPRENSSVKENRIVFLTINSN | -0.569 |
